{"source": "patent US7291458B2", "about": "“Leptin-mediated gene-induction” (Vlaams Interuniversitair Instituut Voor Biotechnologie VZW, priority 1998, dated 2007)", "molecules": {"B1": {"name": "leptin: mouse leptin (R&D Systems), ob gene product, used on PC12 cells at 100 ng/ml (protein)", "chain": "VPIQKVQDDTKTLIKTIVTRINDISHTQSVSAKQRVTGLDFIPGLHPILSLSKMDQTLAVYQQVLTSLPSQNVLQIANDLENLRDLLHLLAFSKSCSLPQTSGLQKPESLDGVLEASLYSTEVVALSRLQGSLQDILQQLDVSPEC"}}, "key": {"PC12-LR8 cells": {"tested_on": "PC12-LR8 cells", "experiment": "Northern blot analysis of gene induction in non-differentiated PC12-LR8 cells", "type": "cell-based, rat", "method": "PC12-LR8 cells were treated with leptin (L), forskolin (F), or a combination of both (F/L) for the indicated length of time. Hybridization with the mouse b-actin probe was used as a control. NI stands for non-induced control cells. Sizes of transcripts are shown on the right. Exposure times to Biomax MS films were 5.5 days for LIP-I and LIP-II, and 1 day for the corresponding b-actin blot, all at −80° C.\nFIG. 6A. Induction patterns of Reg I, HIP-I and peripherin after a 12 hours stimulation with forskolin (F), leptin (L), forskolin plus leptin (F/L), hyper-IL-6 (H) or forskolin plus hyper-IL-6 (F/H). Untreated cells were analyzed as a control (NI). Exposure times to BioMax MS films for Reg I, HIP-I and b-actin were 4 days, 5 days and 3 hours, respectively; and in a separate experiment for peripherin and b-actin, 16 hours and 2 days.\nFIG. 6B Induction patterns of PAP I, PAP III, MT-II, Fnk, MRF-1, SOCS-3 and STAT-3 after stimulation with leptin (L) or hyper-IL-6 (H), compared to non-treated control cells (NI). In all cases stimulation was for 12 hours, with the exception of PAP III where stimulation was for 24 hours. b-actin hybridization patterns are shown as control. Exposure times to BioMax MS films at −80° C. were 16 hours for PAP I and 1 hour for b-actin; 4 days for PAP III and 1 hour for b-actin; 3 days for MT-II and Fnk, and2 days for b-actin; 3 days for MRF-1, 2.5 days for SOCS-3 and2 days for b-actin; and 16 hours for STAT-3 and 3 hours for b-actin.\nFIG. 8A. Northern blot analysis of the immediate early response genes. PC12-LR8 cells were left untreated (NI: non induced), or were treated with forskolin (F), leptin (L) or a combination of both (F/L) for the indicated time points. Exposure times to BioMax MS films for the different transcripts were Fnk: 6 days, MT-II: 5 days, MRF-1: 6 days, SOCS-3: 14 hours, STAT-3: 14 hours, b-actin: 5 hours.\nFIG. 8B. Immediate early response gene-set: early kinetics. PC12-LR8 cells were treated with leptin alone (L) or with a combination of leptin and forskolin (F/L) for the indicated length of time. Exposure time to BioMax MS films were: Fnk: 3 days, MT-II: 3 days, MRF-1: 3 days, SOCS-3: 2.5 days, STAT-3: 2.5 days, b-actin: 1 hour.\nFIG. 8C. Northern blot analysis of the late target genes. PC12-LR8 cells were left untreated (NI), or were treated with forskolin (F), leptin (L) or a combination of both (F/L) for the indicated length of time. Exposure times to BioMax MS films were: Ann VIII: 6 days, PAP I: 14 hours, Squalene Epoxidase: 5 days, UGT: 5 days, b-actin: 14 hours.\nPC12 cells were cultured in RPMI 1640 medium with glutamax-I (GibcoBRL) containing 10% heat-inactivated foetal calf serum (iFCS) and gentamycin (50 μg/ml). The cells were treated with medium alone or supplemented with 100 ng/ml of mouse leptin (R&D Systems), with forskolin (Sigma) at a concentration of 10 μM or with a combination both, unless otherwise indicated.\nTotal RNA was prepared from PC12 cells using RNeasy™ method (Qiagen). RNA (10 μg) was separated on a 1.5% agarose,6% formaldehyde gel, transferred to a nylon membrane (Zeta-Probe GT Genomic, Bio-Rad), and cross-linked using UV radiation. The filters were hybridized for one hour at 68° C. in ExpressHyb™ solution (Clontech) with [^32P]dCTP-labeled DNA-probes and washed 3 times with 2×SSC, 0.05% SDS at room temperature and twice in 0.1×SSC, 0.1% SDS at 50° C. Autoradiographs were obtained by exposing the blots to BioMax MS film (Kodak) with intensifying screens at −70° C. All Northern blots were normalized by hybridization using a b-actin probe."}, "[1]": {"tested_on": "differentiated PC12-LR8 cells", "experiment": "RDA and Northern blot of leptin-responsive genes in differentiated PC12-LR8 cells", "type": "cell-based, rat", "conditions": "leptin 24 hours, continued presence of b-NGF and forskolin", "method": "Adherent PC12-LR8 cells were treated with b-NGF and forskolin for 5 days to induce neuronal differentiation. Differentiated cells were treated with leptin (nF/L) for 24 hours, or were left untreated (nF), in the continued presence of b-NGF and forskolin. Non-differentiated cells were treated for 24 hours with leptin and forskolin (F/L) or with forskolin alone (F). Hybridization was performed with probes as indicated. Mouse b-actin probe was used as a control. Exposure to BioMax film at −80° C. was 3 days for Mx2, 3 hours for peripherin, 4 days for PAP III and 16 hours for b-actin.\nThe search for leptin-regulated genes was also extended to differentiated PC12 cells (FIG. 5). Adherent PC12-LR8 cells were treated with b-NGF and forskolin for 5 days, which led to a growth arrest, the formation of branched neuritic processes and the accumulation of small vesicles. Again, a RDA experiment was performed using mRNAs from differentiated cells treated with leptin for 24 hours, or from untreated cells, both in the continued presence of b-NGF and forskolin.\nFor neuronal differentiation, resuspended PC12 were seeded on rat tail collagen (Collaborative Biomedical Products) coated plates at 2-3 10^6 cells/25 cm^2 flask in RMPI 1640 medium with glutamax-I containing 10% heat-inactivated horse serum, 5% iFCS and gentamycin. […]"}}}
{"molecule": "B1", "values": [{"measurement": "kinetics of synthesis of SOCS-3 mRNA", "setting": "PC12-LR8 cells; 2 hours post stimulation", "value": "rapid decline"}, {"measurement": "time of optimal mRNA levels post induction", "setting": "PC12-LR8 cells; Annexin VIII, Squalene epoxidase", "value": "over 96 hours"}, {"measurement": "time of induction of immediate early response genes", "setting": "PC12-LR8 cells; Fnk, MT-II, MRF-1, STAT-3, SOCS-3, leptin treatment", "value": "≤ 4", "unit": "h"}, {"measurement": "time of optimal mRNA levels post induction", "setting": "PC12-LR8 cells; PAP I, UGT", "value": 22, "unit": "h"}, {"measurement": "time of induction of late activated target genes after stimulus", "setting": "PC12-LR8 cells; PAP I, UGT, Ann VIII, squalene epoxidase, leptin treatment", "value": "≥ 6", "unit": "h"}, {"measurement": "induction of HIP-I and Reg transcripts", "setting": "PC12-LR8 cells; RDA hyper-IL-6 versus leptin", "value": "not induced"}, {"measurement": "time of optimal stimulation post induction", "setting": "PC12-LR8 cells; SOCS-3", "value": 30, "unit": "min"}, {"measurement": "time of optimal stimulation post induction", "setting": "PC12-LR8 cells; STAT-3", "value": 480, "unit": "min"}, {"measurement": "induction of PAP I and PAP III transcripts", "setting": "PC12-LR8 cells; without forskolin", "value": "requires forskolin co-stimulation"}, {"measurement": "regulation of Mx2, Peripherin and PAP III transcripts", "setting": "[1]", "value": "up-regulated"}]}
